Key:
human PD-L1 (WT) = human PD-L1 (WT) (human, UniProt Q9NZQ7 19-238, limits assumed); assay: method not stated; PD-L1 ISVD-9 on human PD-L1 WT
PD-L1-muFc = biological target: T1, PD-L1-muFc (human); assay: ELISA, PD-L1-muFc coated, anti-human Fc-HRP detection (FIG. 2, Panel B)
T1 construct: also called soluble human PD-L1
Description: (§1) A 96-well plate was coated with PD-L1-muFc (human PD-L1 extracellular domain fused to N-terminus of mouse Fc, its amino acid sequence is as set forth in SEQ ID NO: 53). Various concentrations of the samples as well as control molecules were added. HRP labeled goat anti-human Fc antibody was used for detection. After being developed with TMB, the plate was read at a wavelength of 450/650 nm in a microplate reader.

CTLA4-muFc = biological target: T2, CTLA4-muFc (human); assay: ELISA, CTLA4-muFc coated, anti-human Fc-HRP detection (FIG. 2, Panel C)
T2 construct: also called soluble human CTLA4
Description: as §1, with “CTLA4-muFc” for “PD-L1-muFc”, “CTLA4” for “PD-L1”, “to the” for “to”, “52).” for “53).”

T1 sequence (chain, as listed by the source limits assumed): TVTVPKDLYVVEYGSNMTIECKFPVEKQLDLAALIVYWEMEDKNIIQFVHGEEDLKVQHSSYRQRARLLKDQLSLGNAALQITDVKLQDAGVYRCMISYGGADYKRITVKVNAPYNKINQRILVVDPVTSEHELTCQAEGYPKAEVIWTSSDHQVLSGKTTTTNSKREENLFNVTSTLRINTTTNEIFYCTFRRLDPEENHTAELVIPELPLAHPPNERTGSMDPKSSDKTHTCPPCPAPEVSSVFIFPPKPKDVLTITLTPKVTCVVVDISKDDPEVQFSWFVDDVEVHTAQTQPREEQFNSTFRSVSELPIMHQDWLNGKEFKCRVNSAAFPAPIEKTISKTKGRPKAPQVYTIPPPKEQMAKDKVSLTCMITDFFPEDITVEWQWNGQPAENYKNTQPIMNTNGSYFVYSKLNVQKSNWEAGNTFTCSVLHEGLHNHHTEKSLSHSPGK
T2 sequence (chain, as listed by the source limits assumed): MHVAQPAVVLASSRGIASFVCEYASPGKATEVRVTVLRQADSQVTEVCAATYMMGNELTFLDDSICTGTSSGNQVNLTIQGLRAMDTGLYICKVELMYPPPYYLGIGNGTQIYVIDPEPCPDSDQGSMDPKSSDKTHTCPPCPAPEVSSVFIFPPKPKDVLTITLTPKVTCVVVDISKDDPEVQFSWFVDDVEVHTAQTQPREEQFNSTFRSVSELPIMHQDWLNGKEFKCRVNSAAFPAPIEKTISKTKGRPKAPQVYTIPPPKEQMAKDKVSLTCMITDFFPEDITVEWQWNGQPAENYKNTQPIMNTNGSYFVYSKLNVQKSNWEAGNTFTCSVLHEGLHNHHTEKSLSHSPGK
Chain of human PD-L1 (WT) (Q9NZQ7 19-238 limits assumed): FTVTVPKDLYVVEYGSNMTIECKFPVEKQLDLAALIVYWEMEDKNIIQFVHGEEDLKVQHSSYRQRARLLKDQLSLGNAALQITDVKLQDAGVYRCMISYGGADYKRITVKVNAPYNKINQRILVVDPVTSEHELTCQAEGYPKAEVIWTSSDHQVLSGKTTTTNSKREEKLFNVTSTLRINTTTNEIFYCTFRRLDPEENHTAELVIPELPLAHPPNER

B1: PD-L1 ISVD-9 (VHH)
VHH: QVQLVESGGGLVQPGGSLRLSCAASGKMSSRRCMAWFRQAPGKERERVAKLLTTSGSTYLADSVKGRFTISRDNSKNTVYLQMNSLRAEDTAVYYCAADSFEDPTCTLVTSSGAFQYWGQGTLVTVSS
notes: also called aPDL1.9; humanized variant of PD-L1 ISVD-4
For B1, the Kd (human PD-L1 (WT)) was 5.92 nM.

B2: durvalumab (antibody, V domains shown)
VH: EVQLVESGGGLVQPGGSLRLSCAASGFTFSRYWMSWVRQAPGKGLEWVANIKQDGSEKYYVDSVKGRFTISRDNAKNSLYLQMNSLRAEDTAVYYCAREGGWFGELAFDYWGQGTLVTVSS
VL: EIVLTQSPGTLSLSPGERATLSCRASQRVSSSYLAWYQQKPGQAPRLLIYDASSRATGIPDRFSGSGSGTDFTLTISRLEPEDFAVYYCQQYGSLPWTFGQGTKVEIK
B2 gave an EC50 (PD-L1-muFc) of roughly 0.6 nM.

B3: ipilimumab (antibody, V domains shown)
VH: QVQLVESGGGVVQPGRSLRLSCAASGFTFSSYTMHWVRQAPGKGLEWVTFISYDGNNKYYADSVKGRFTISRDNSKNTLYLQMNSLRAEDTAIYYCARTGWLGPFDYWGQGTLVTVSS
VL: not shown
B3 was tested, and the EC50 (CTLA4-muFc) was roughly 0.5 nM.
